Experiments:
[1] = target: T1, RGS7 RH domain, GST-fusion protein, biotinylated (UniProt P49802 333-448, biotin on amines (Biotin-NHS, 3:1 biotin:RGS)); assay: flow cytometry protein interaction assay
T1 sequence (looked up): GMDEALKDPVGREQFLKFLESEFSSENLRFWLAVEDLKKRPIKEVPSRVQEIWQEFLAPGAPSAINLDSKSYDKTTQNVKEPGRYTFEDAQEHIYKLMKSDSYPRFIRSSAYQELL

[2] = target: T2, full-length RGS8, GST-fusion protein, biotinylated (UniProt P49804 1-180, biotin on amines (Biotin-NHS, 3:1 biotin:RGS)); assay: flow cytometry protein interaction assay
T2 sequence (looked up): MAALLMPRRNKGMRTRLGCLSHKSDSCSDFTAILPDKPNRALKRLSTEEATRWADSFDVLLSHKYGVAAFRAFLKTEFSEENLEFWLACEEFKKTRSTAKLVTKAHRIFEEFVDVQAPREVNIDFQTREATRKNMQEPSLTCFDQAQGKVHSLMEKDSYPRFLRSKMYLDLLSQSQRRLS

bead-associated fluorescence, positive control mean (with AlF4-) [1]: 948
bead-associated fluorescence, positive control mean (with AlF4-) [2]: 2060
B1: Rat Gαo, N-terminal 6X-HIS tagged, labeled with AlexaFluor 532 (natural protein, UniProt P59215 1-354, looked up)
chain: MGCTLSAEERAALERSKAIEKNLKEDGISAAKDVKLLLLGAGESGKSTIVKQMKIIHEDGFSGEDVKQYKPVVYSNTIQSLAAIVRAMDTLGVEYGDKERKADSKMVCDVVSRMEDTEPFSAELLSAMMRLWGDSGIQECFNRSREYQLNDSAKYYLDSLDRIGAADYQPTEQDILRTRVKTTGIVETHFTFKNLHFRLFDVGGQRSERKKWIHCFEDVTAIIFCVALSGYDQVLHEDETTNRMHESLMLFDSICNNKFFIDTSIILFLNKKDLFGEKIKKSPLTICFPEYPGSNTYEDAAAYIQTQFESKNRSPNKEIYCHMTCATDTNNIQVVFDAVTDIIIANNLRGCGLY
modifications: AlexaFluor 532 carboxylic acid succinimidyl ester label, 3:1 fluorophore:protein ratio

Reference: paper PMC2908316 (Journal of biomolecular screening, 2009)
